From the supplement of paper PMC10567573
± gives the standard deviation.

Assay: protein stability index of a GFP-peptide fusion (GPS, HEK-293T) (PSI 1-6); higher = more stable
[1] = treatment: DMSO, c terminus: a fixed tail appended
[2] = treatment: MLN4924 1 uM, 8 h, c terminus: a fixed tail appended
[3] = treatment: DMSO, c terminus: native
[4] = treatment: MLN4924 1 uM, 8 h, c terminus: native
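Further: 24-mer peptide tiles fused after GFP, lentivirally expressed, FACS-sorted into six equal bins by GFP/DsRed ratio, decoded by Illumina sequencing, PSI is the read-weighted mean bin number.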

Sequence	protein stability index [1]	protein stability index [2]	protein stability index [3]	protein stability index [4]
YVQEKRDGLKRRQQLEEELLRAKI [RAD54B]	2.71 ± 0.66	3.38 ± 0.78		
HLRATEKMKTRELHRESSNFDSIY [HDAC6]	3.18 ± 0.43	3.46 ± 0.2		
HVKEQLPCAGLNCQALDANLDANL [TLE6]	4.42 ± 0.19	4.64 ± 0.24		
AQPNYIPTQQDVLRTRVKTTGIVE [GNAI1]	4.19 ± 0.23	4.27 ± 0.36		
GRLILSTIRLRPRQVLCEKCKSTL [PWWP2B]	2.2 ± 0.4	2.56 ± 0.55		
KREAGNLTKATAPDQKSSGGRDS [SSNA1]			5.07 ± 0.23	5.25 ± 0.17
HGSGSHPGPASGPGPDTGPDSELS [SPAG8]	5.41 ± 0.25	5.37 ± 0.36		
YKREILERVDGRRLVYKFGKNSSG [ELF3]	3.1 ± 0.22	3.21 ± 0.44		
FSETHADPHNSRRGFFFSHVGWLL [SCD]	2.66 ± 0.29	2.15 ± 0.21		
EIPENYNSAMPFKILYDDGKMVEE [PTPRD]	4.55 ± 0.2	4.79 ± 0.071		
TKHKCRQLTKASLKPRGCSKPPWR [SPACA9]	2.85 ± 0.4	3.42 ± 0.47		
RIFTFICKDSESNKHLCYVFDSEK [GULP1]	2.06 ± 0.56	2.21 ± 0.31		
FSKASDSLQLVFGIELMEVDPIGH [MAGEA6]	2.27 ± 0.56	2.42 ± 0.41		
EVILGDIWKLNLQTFQWVKLPATM [KLHDC10]	2.51 ± 0.51	2.21 ± 0.3		
DEEDCPNPEEYNLDEPNAESDYTY [SRPK2]	5.57 ± 0.37	5.66 ± 0.15		
LKDWEHSIALRNISLAKGPPGPKG [SCARA5]	3.68 ± 0.25	3.78 ± 0.36		
MPQYILREFKVTDARDGQSRTVRQ [PTPRD]	3.75 ± 0.18	4.18 ± 0.27		
LANLRGLSEEERSEKAMLRSRIEE [CCDC89]	4.67 ± 0.22	4.68 ± 0.12		
INYKLKSVAHLPWRMLTYKALNTF [CLPTM1]	2.44 ± 0.65	2.31 ± 0.36		
RGTGQLNRFVQLSGRPHLPGKKKI [KLHDC10]	2.99 ± 0.2	3.03 ± 0.26		
YLKSCRRMKKNGMEMTRPTPPHLT [NOL4L]	2.89 ± 0.19	2.96 ± 0.25		
NAMTCEGCKGFFRRSMKRKALFTC [VDR]	2.38 ± 0.36	2.22 ± 0.6		
LLVGRYPFHDSDPSALFSKIRRGQ [TRIB1]	2.22 ± 0.23	2.46 ± 0.53		

Sequence	protein stability index [1]	protein stability index [2]	protein stability index [3]	protein stability index [4]
IHPKSIDLDNYFTARRLLSQVRAL [NFE2L1]	2.25 ± 0.32	2.54 ± 0.18		
RKILVLDLDETLIHSHHDGVLRPT [CTDNEP1]	2.46 ± 0.2	2.61 ± 0.17		
NTTCVGRYPVCKFPSLQVTAILIE [FEM1C]	2.67 ± 0.48	2.23 ± 0.21		
YTVRAPVGVAGLISPWNLPLYLLT [ALDH8A1]	2.49 ± 0.47	2.14 ± 0.07		
DEVIDVMQENITKVIERGERLDEL [VAMP4]	4.77 ± 0.32	4.88 ± 0.28		
AKGKVQAELSQPLTAGGAISELL [RBBP5]			4.18 ± 0.3	3.91 ± 0.34
IASEWFLIANRSYKVSAASSFFFS [SLC22A15]	3.03 ± 0.19	2.94 ± 0.42		
LMISENNFLFRNAASTLTERPCYN [ANKRD40]	2.16 ± 0.31	2.36 ± 0.27		
DGAEIAEKFVFFIGSKNGGKTTII [DYNC2LI1]	2.26 ± 0.78	2.05 ± 0.54		
YQELLRVCCCELGVNPDQVEKIRK [ANKRD40]	2.41 ± 0.51	2.55 ± 0.22		
QYYRWLNYGGVIKNYFQHREFSFT [PRIM1]	2.34 ± 0.64	1.98 ± 0.47		
RKLSPTEPKNYGSYSTQASAAAAT [SCAMP3]	4.37 ± 0.17	4.38 ± 0.14		
RRWGKRKNKPKMNYEKLSRGLRYY [ETS1]	2.44 ± 0.33	2.68 ± 0.38		
SPPSSSAASSYSFSDLNSTRGDAD [EMD]	5.12 ± 0.29	4.98 ± 0.2		
NTVKVQVLYPDGQAQMIHPKPADF [INTS4]	3.05 ± 0.48	3.08 ± 0.27		
DFDLDLVPWESDIWDINNQICTVK [ATF6]	3.06 ± 0.3	3 ± 0.21		
HQPKGLEEENAQLRGALQQGEAFQ [PBXIP1]	5.07 ± 0.24	5.05 ± 0.12		
VNPFQLQQFRADPSTASLLLCPGG [TIAF1]	2.93 ± 0.11	2.78 ± 0.14		
RAFAQIGPARSGFRLETLAGLRSR [MIR22HG]	3.23 ± 0.53	3.2 ± 0.3		
AVEGLTEAEEEELRAELTKVEEEI [TPD52L2]	5.6 ± 0.25	5.54 ± 0.12		
KQLEFGLKEAPVQDQGYKTLRLRE [ZNF8]	4.3 ± 0.31	4.27 ± 0.22		
QQREKLSLIRKHAQTFIALCATDF [CCND2]	2.25 ± 0.22	2.44 ± 0.13		
ANTIRGGGCYFGPDVTQQLLQKYN [PPEF2]	2.44 ± 0.35	2.59 ± 0.41		

Sequence	protein stability index [1]	protein stability index [2]	protein stability index [3]	protein stability index [4]
PDTMEKLRTHIDAIILALPEDLQG [DENND6A]	3.02 ± 0.5	3.02 ± 0.23		
SACSFTNSDMQILTASGDGTCALW [GNB5]	2.33 ± 0.27	2.15 ± 0.22		
TNLTVTMDQLQGLGSDYEQPLEVK [CDC25A]	4.61 ± 0.16	4.69 ± 0.24		
LKEELAYLKKNHEEEMNALRGQVG [KRT17]	4.01 ± 0.36	4.05 ± 0.66		
MRTTNLDNRCKLFDSPSLCSSSTR [CDC25A]	3.21 ± 0.4	3.18 ± 0.24		
SEDSFCRRHPGLGKAFPSGCSAVS [TRAF3IP2]	3.66 ± 0.24	3.46 ± 0.33		
EQKAAGSASAKRVWNMTATRPKKM [FATE1]	4.43 ± 0.16	4.39 ± 0.22		
ADFGSATFDHEHHTTIVATRHYRP [CLK3]	3.79 ± 0.21	3.92 ± 0.29		
GGFLSESKDCKPPVYLLLELEDKD [MYBL2]	3.99 ± 0.21	4.17 ± 0.32		
EAITSASFLEQIMAPLQPSTSRAH [FAM189A2]	3.52 ± 0.13	3.59 ± 0.22		
RDANGWTLLHFSAARGKERCVRVF [ASB7]	2.29 ± 0.29	2.43 ± 0.43		
KAIKARGEVIHCKLRAMKELSEAA [STX11]	3.32 ± 0.29	3.6 ± 0.2		
FGTQVENFSTFIKCIFTQFRIILG [PKD2L1]	2.35 ± 0.058	2.24 ± 0.32		
MEDSFLQSFGRLSLQPQQQQQRQR [N4BP2L1]	4.69 ± 0.3	4.63 ± 0.25		
HVEVARLLLENGAGINTHSNEFKE [ANKRD17]	3.69 ± 0.39	3.39 ± 0.22		
QGFSYSKSNGRGGSQAGGSGSAGQ [MYOZ1]	4.76 ± 0.18	5.02 ± 0.16		
TFKSFEDRVGTIKSKVVGDRENGS [TPD52L2]	4.65 ± 0.062	4.7 ± 0.29		
PGEFSDASMSPDATKPSHWCSVAY [SMAD6]	3.07 ± 0.14	3.14 ± 0.19		
AKMLLHEGQHPAQLRSDVCTPGGT [PYCR3]	4.29 ± 0.5	4.58 ± 0.9		
VFIFYYVVEEILELHIHRLRYLSS [PKD2L1]	2.8 ± 0.091	3.07 ± 0.51		
LVFEHVDQDLRTYLDKAPPPGLPA [CDK4]	2.7 ± 0.36	2.88 ± 0.34		
CEERWLVIDRKVYNISEFTRRHPG [FADS1]	2.1 ± 0.3	2.15 ± 0.33		
KKLEKYLQKLSALLMTADILAETG [ELOA2]	2.74 ± 0.79	2.6 ± 0.055		

Sequence	protein stability index [1]	protein stability index [2]	protein stability index [3]	protein stability index [4]
LEFSLLSYAFGKFPTVVWTWWIMF [SOAT1]	2.98 ± 0.6	2.95 ± 0.59		
RVLKAYTLYRPEEGYCQAQAPIAA [TBC1D10A]	2.08 ± 0.29	2.16 ± 0.21		
NLQPPASLQTGNHSNGPTDLSMKG [NOL4L]	4.66 ± 0.25	4.61 ± 0.21		
RSHPDNAIPIKSWFSDPSDTALLN [CTDNEP1]	3.73 ± 0.18	3.87 ± 0.18		
RIAAVEALCMLAQSSPSFAEKCLD [INTS4]	2.46 ± 0.49	2.2 ± 0.53		
EDLQDGDVRMGGSFRGAFSNSEKA [NET1]	4.98 ± 0.63	5.252 ± 0.051		
TSIQWKNHDQNNHNTDRSSHKDSM [EDNRA]	5.05 ± 0.12	5.14 ± 0.2		
NLEKTIFCLQKLISLHPFNPWNWG [C8orf76]	2.53 ± 0.77	2.59 ± 0.5		
HAPGVPKILVGNRLHLAFKRQVPT [RAB40B]	2.49 ± 0.5	2.6 ± 0.35		
RTHTGEKPYTCSVCGKSFSRTTCL [ZNF8]	2.92 ± 0.31	3.35 ± 0.54		
FGGGYGGGLGGGYGGGLGGGFGGG [KRT13]	2.37 ± 1.4	2.88 ± 0.15		
LIILASGGPQALVNIMRTYTYEKL [CTNNB1]	3.04 ± 0.21	3.35 ± 0.76		
RTAMPYGGYEKASKRMTFQMPKFD [MYOZ1]	2.76 ± 0.18	2.86 ± 0.23		
DLLFIVDTMLEEVENKEKDSNMPH [CEP70]	2.29 ± 0.24	2.76 ± 0.38		
EDVTVGRRQAVAWLVAMHKAAKLL [ZFYVE21]	2.48 ± 0.34	2.59 ± 0.35		
WEWNELIPQGICPVGRSWHSLTPV [KLHDC2]	2.16 ± 0.27	2.27 ± 0.21		
MSLHGASGGHERSRDRRRSSDRSR [BTBD10]	5.05 ± 0.16	5.19 ± 0.22		
PLVEKKRRARINESLQELRLLLAG [HES6]	2.63 ± 0.6	2.75 ± 0.73		
GNSTQATVRDAVVGRPSMDKKAQ [ATL3]			5.28 ± 0.13	5.21 ± 0.23
LPHPGLQVATSPDFDGKLKDIAGE [ATL3]	4.91 ± 0.25	5.11 ± 0.26		
